Measured values reported in the DeepSol protein solubility set.

experiment: soluble on expression in E. coli; label from the status in PepcDB or PDB records

Q: For “MNSSSASIPRTAHAAVPTAHASRYLQQLCKHWAHKFEAEFDPIQARIALPLGEARLTARPDALLIDLTATDAANMTTFQQVVISHIERFAFREELRFVWG”, which “soluble on expression in E. coli” value is on record?
A: Its value is “not soluble”.

Q: Which “soluble on expression in E. coli” value does the source give for “MLTEQEKDIIKQTVPLLKEKGTEITSIFYPKMFKAHPELLNMFNQTNQKRGMQSSALAQAVMAAAVNIDNLSVIKPVIMPVAYKHCALQVYAEHYPIVGKNLLKAIQDVTGLEENDPVIQAWAKAYGVIADVFIQIEKEIYDQMMWIGFKPFKITNIKQESEDIKSFTVETEEYDFSEFTPGQYITVDVSSDKLPYRAKRHYSIVSGEKNHLTFGVKRDVTTEHEGEVSTILHDEIKEGDMINLAAPVGGFVLENTTEPQLFLGSGIGVTPLVAMYEAASAKGLDTQMVQVAENEQHLPFKDNFNSIASHHDNAKLYTHLKDKQGYIGAEELQVFLANKPEIYICGGTKFLQSMIEALKSLNYDMDRVHYETFIPRLSVAV” here?
A: Its value is “not soluble”.

Q: Which “soluble on expression in E. coli” value does the source give for “MNIRCARVDDLMSMQNANLMCLPENYQMKYYFYHALSWPQLSYIAEDHKGNVVGYVLAKMEEDPGEEPHGHITSLAVKRSYRRLGLANKMMDQTARAMVETYNAKYVSLHVRVSNRAALNLYKNTLKFEIVDTEPKYYADGEDAYAMRRDLAKWAEERNIEPADREAYTTAKTTDDKKKNRS” here?
A: Its value is “not soluble”.

Q: For “MRLLVMVFTSDKKLVEEIKREVERRGFRVRDVQSPDELRRDLEKLLREHNAQFVIIVVTDKEWAKEALKKAKEEGVQIFLILWDTNEDELRKFREEVERKGVDVRTATSPDDVKDIVREFLERVGSHHHHHH”, which “soluble on expression in E. coli” value is on record?
A: Its value is “soluble”.

Q: With “MMMLPEACIANILAFTSPADAFSSSEVSSVFRLAGDSDFVWEKFLPSDYKSLISQSTDHHWNISSKKEIYRCLCDSLLIDNARKLFKINKFSGKISYVLSARDISITHSDHASYWSWSNVSDSRFSESAELIITDRLEIEGKIQTRVLSANTRYGAYLIVKVTKGAYGLDLVPAETSIKSKNGQISKSATYLCCLDEKKQQMKRLFYGNREERMAMTVEAVGGDGKRREPKCRDDGWMEIELGEFETREGEDDEVNMTLTEVKGYQLKGGILIDGIEVRPKT” as the sequence, how does the “soluble on expression in E. coli” value read?
A: Its value is “soluble”.

Q: For “MGSDKIHHHHHHMSSASLLWCHSGVSTVRFGERIFTLVAGDLLFAPEEAQVADDSQGLVLNIRFETLNIMGPARRIHLGHVWNDRLTFEYSRSLFGKETLSPDIARLFTDRVPTPPLPAPRKARAVAQVLVSNPADQTSLEEFAEIQGVSARTLQRQFLKSTGYSFSEWRAAQRVCVAASLLAHDFSISVVANLVGFAATSSLTRAFRRHTGATPSTFTTGQIGMGSAGHPPRIPATTTFAEAHQDQQLWIYSGTATVTTPGYCRFMGQGDMVTIPAGTQTRIDVAAGSIAFPVPVGLDEWGMDLTRVVAVNNQQPKPLTILEQSEWSKLSEELLNTPVPVQM”, which “soluble on expression in E. coli” value is on record?
A: The value was “not soluble”.

Q: Which “soluble on expression in E. coli” value does the source give for “NMAGMNDKASMNDKASMTVKINESLPQGNGKALGTVTVTETAYGLLFTPHLTGLAPGIHGFHLHEKPSCAPGMKDGKAVPALAAGGHLDPNKTGVHLGPYNDKGHLGDLPGLVVNADGTATYPVLAPRLKSLSEVKQHALMIHAGGDNYSDHPMPLGGGGARMACGVIE” here?
A: The value was “soluble”.

Q: Which “soluble on expression in E. coli” value does the source give for “MQQEEPNKYVKELTQEKYKYGFTTEVHTDVIERGLNEDVVRLISSKKDEPEWLLEFRLKAYRHWLTLEMPTWAHLRIPEIDYQAISYYADPTKKKEGPKSMDEVDPELIKTFNKLGIPLEEQMALSGMAVDAVMDSVSVKTTFKETLMEKGIIFCSFSEAVREHPDLVKKYMGSVVGYRDNFFAALNSAVFSDGSFVYIPKGVRCPMELSTYFRINARNTGQFERTLIVADDDSYVSYLEGCTAPMRDENQLHAAIVEIVVHDRAEVKYSTVQNWYPGDAEGKGGVYNFVTKRGNCKGVDSKLSWTQVETGSAITWKYPSCILTGDNSTAEFYSVAVTNNYQQADTGTKMIHLGKNTRSTIVSKGISAGHSENSYRGLVRVAEKADNARNYSQCDSLLLGDKCGAHTFPYMDIHNETAVVEHEATTSKISEDQIFYCNQRGIPTEDAIGLIVNGYAKEVLNKLPMEFAVEAQKLLTISLEGSVG” here?
A: Its value is “not soluble”.

Q: With “MGSDKIHHHHHHMKAGTQKTLTHSDLVEQGVRFLLASYVDLHGVPKAKAVPISHFDRMMNGSEMFTGAALDGVPQEISDEEVAAHPDMGSAIVLPWSKDIAWLPSDLYTQGEPFNACSRTILKKVRQQAAELGMAMQLGIEAEFFVLKDQEAGGFSPISTRHHLKKPAYDVARLLDNKPWLSELVEAMDSLDWGVYSFDHEDGIGQFEIDFSYFEVLRMADNFTFLRMMANEIARKHGGFASFMPKPYGDRAGSGAHFNISLTDINTGLNLFEPEQDDPRGCGLSTLGYQFIAGVLRHLPAICAVVAPTVNSYKRLVKQGSMSGFTWAPVFCCYGNNNRTNTIRIPLGGKRIEIRAVDSACNPYLGAAMILAAGLEGIRENLDPGDPHLDNMYEKTPEELASLGIRELPKTLEEAIDAFEADPLSRQVFGDQMFSAWTQYKREEWLSYITHVSDWEYDRYLKLF” as the sequence, how does the “soluble on expression in E. coli” value read?
A: Its value is “not soluble”.

Q: Which “soluble on expression in E. coli” value does the source give for “MHRYLWQQADGKRHVYDTTRHRIQAEHSFTALCGETVIPRTERGDLTAGLWFDGECPVCTIALAKALGWPMRELADLAHRFTWSPELLARLAEILHCTSGEVAELTGARTVDT” here?
A: Its value is “not soluble”.

Q: For “MSLASVIADVPGMKTIVQVLTFRDYQYDDGWHQANIEVPAISGLEESGLGQALNQKYLEENKKLYEDFMADVEEMKALGDGHMGVDSGYEIKTDNERLLAIGRYVVNTVGSSSTVFKYDTIDKVDQVLITLPSLFKDDSYVQVISDYIVNEMKAKMKADSNLIYWVVTDENKDEVNYFEPFTQIKPEQSFYINSDYKLVISFDKYEVGPGVMGMQEFVIPTEVIADRLVSDEYVREGHHHHHH”, which “soluble on expression in E. coli” value is on record?
A: Its value is “soluble”.

Q: Which “soluble on expression in E. coli” value does the source give for “MAHHHHHHMSLHKEICNYIVKFSSKPVQRLGYEPPKKKRSILRELYHKLIFPYYFKFIRAPYERWQFCATTKFLREHGLMYDDMYSDKDPVIERAISLLPKDIQTRRYRRMLRGTHINYLRLFLHPSEQNYDPYIPYLAPYIEEAKFQLQEEEELLGYHPYDRRLYSGGTTGFGDLEPGLHFLVSIPNLYGAAIPHSKKK” here?
A: The value was “soluble”.

Q: For “PEGSRDILFEECTIKNNIENILRNSYINVGYEEVRSPTLEFYDVYNLENQPISQEKMYKLFDNTGRILVLRPDMTTPIARICATKLKNRVYPLKLSYTGNIYRMNKALNGKISEITQSGIEILGFSSLKADAEVIITAIKAILKTGLKNFKIEIGQVEFFKSIISDTALKEQDTEKLRNFIENKNFSKVEEFILRNSDLIGETSSKVLMNLPNLFGGKEVIEKAEQLTSNKQAIEALKKVRDLYDIVKRAGFGEYILIDLGMVQHINYYTGLIFRGYAHGIGDDLLSGGRYDKLLGQFGYDIPATGLAINVDNLVAALDDCVRENL”, which “soluble on expression in E. coli” value is on record?
A: The value was “not soluble”.

Q: For “MGGVKKNALLDYVFTKALENLTALFTQLNITAVKEIIRPLETGHEAYFVLPIDARTLKVLMIELEESIPLARLWDLDVFNAKGNLLSRTDFDLSPRTCLVCGENAKICARTHKHEIDEIVDKIQSLAQNHDFAEHIGEQVYLALIQEARLSPKPGLVDAINNGSHKDMNLHTFEQSAISLKPFFTQFVLKGMMTAHLSENQILSEIRPLGLLAEKAMFKVTDGVNTHKGAIFSFGLVCTAIGRLLAQKSLVQSAVDFDVKLICSLVAQFTQGLTDELKNYPEHLPSTAGVRLFQKYGLTGVRGEAENGFNLIQTLLPQFDEYHQLEWEHRLLILLLNLMAINSDTNVVHRGGLAGLYFIQQTAQDLLTDQHLVTDKTALTQALMKFDTACIERNLSSGGSADLLALTIFFLSFRGN”, which “soluble on expression in E. coli” value is on record?
A: Its value is “not soluble”.

Q: Which “soluble on expression in E. coli” value does the source give for “GSDGTREFLTFEVPLNDSGSAGLGVSVKGNRSKENHADLGIFVKSIINGGAASKDGRLRVNDQLIAVNGESLLGKANQEAMETLRRSMSTEGNKRGMIQLIVARRISRCNE” here?
A: Its value is “soluble”.

Q: Which “soluble on expression in E. coli” value does the source give for “MGSDKIHHHHHHMQEYKACAAHTDILKKYGFKVEKGFANFETAYKASYKKQNGPRIAILAEYDALPKIGHGCGHNAYGVTSIAGGILIKELIQKLDLQGEILVIGTPAEETNGAKVDMAKLGIFNDIDVAMSVHPSGEAHIRSGKSHAMEALQFTFKGKTAHAAASPHEGINALDGVLNLFNSINALRQQILSSARIHGIISNGGEAANIIPDLAIANFYVRAETLEYLKELVKKVKNCAKGAALASDTELEITNYETSFANLVTNKKLMKLYEKNLRTLGVTDIRDKEGLGSTDMGDVSHCCPTIHPYFPLTTRHLVGHTIEFATATIQEEAYKGMKEACLAMALSCLDIFEKPEILKEIKEEFYQTFKK” here?
A: The value was “not soluble”.

Q: For “MSLSIIVASTMSDSGKSFITTGLVRILNAKPLKIQNMSLNSISTWDGGEIAFIQAYQAWGAGLRPERYMNPILLKIMGKGLEVIFMGSSLGIMSGNEYYNLATEKLWKKVSQFLSNDVVIEAAGGIGEPNFIDKDITAIKVMKEKRIPAILVLDIDRGGAFASAYGTYMMLPQSVRENLKGFIINKFRGDEKFLNDAIKWLEEKTGMRYLGYLPFFSEPPIMPEDSMNVYNFGDGNVEVAIIAYPYMSNFNEFYALVKSNARVSFVRKPKETAKADLVILPGSRNTLESLKWLVENGFVEQLRQRSMNILGICGGFQILGKKIVDPYGIEAGYPTEYEGLGIFDINVHYSKDKVVSMTTGISEYGEMNGYEIRRGVIKYMGEKPLLKITLRNGEKVSVEDGAKKDNIIGISVHGTLFSDGMKKLLKEFNINIHSQSMEEEIKQQAIRVEQFLRKYLHIDEIVEIYKEGHHHHHH”, which “soluble on expression in E. coli” value is on record?
A: The value was “not soluble”.

Q: For “MAVDAVNSAAANPWANAGASSSDKNAASLNYDSFLKLLIAQMKNQDPTSPMDAGQQMSQLASFSQVEQTIKTNTHLKSMLQAEALTRASDLVGKTVMSADDKVTGVVKEVQVFSDGIVAVTEAGDKVLLQAGVVFSNGPITTKSDETTADSNNSAGS”, which “soluble on expression in E. coli” value is on record?
A: The value was “not soluble”.

Q: Which “soluble on expression in E. coli” value does the source give for “MSFLNNDFGSPPATSSPPTTMPKLPTIQDMLNNIGASTVNLMQPNPYLMQNQIPLPVPNLPLNPFLHLNPAISQEIIQQFIAMSFNTPNVLASIANMGDDEGPSCNPKMRRGDLLKSVSMDSTEDPPSITLDNNGDMIVPNNDKEGWCRNKKYIEQTENGYMCTVCRKVYGRYNSVSYHVTIYHRNPPIKCNVPNCQFTTREARYIHFHKNYRHGIPLPESIDQGSRKCPHCRHVSKSPAMLEKHIRRHQIKDGLSNINEAIRERTSTICDEAMEIEPAETEVDPIETKPRSCTL” here?
A: Its value is “not soluble”.

Q: With “VKNKKFTIIGGDLRSVKLAELIVAEGNKVNIYGFKNANFEIGIEESEDLDHAIGEADVIVGPTPCSTDNETINTPFHSQKIFIKDIFKKMNKSQLFIAGRITDKIAQLADVYNVYSVDLLEREEMAVLNAIPTAEGAIQIAMEEMPITLHGSNALILGFGRIGKILAKMLHGIGSNVYVEARKYSDLAWIESYGYKPVFITELESYIDRANVIFNTIPSIVLDENLLRKVNKDCLLIDLASKPGGIDFEKAKEMGLKTIWALSLPGKVAPVTAAKFIKDTISNIIDELGV” as the sequence, how does the “soluble on expression in E. coli” value read?
A: The value was “not soluble”.

Q: Which “soluble on expression in E. coli” value does the source give for “MKDILGKTFECSCGKTHEVPDIEILETSIREAPDVFSDAFFIADLNTASLVDLPGKRSFVFNERRPLATMENV” here?
A: Its value is “not soluble”.

Q: With “MSSIPQNIKGNNQPDIQKSFVAVHNQPGLYVGQQARFGGKVINVINGKTDTLLEISVLPLDSYAKPDIEANYQGRLLARQSGFLDPVNYRNHFVTILGTIQGEQPGFINKVPYNFLEVNMQGIQVWHLREVVNTTYNLWDYGYGAFWPEPGWGAPYYTNAVSQVTPELVKLEHHHHHH” as the sequence, how does the “soluble on expression in E. coli” value read?
A: Its value is “soluble”.
